Common to all, as to assay: cell-based or functional assay
Test [1] concerns the target murine LFA-3 (CD48) expressed on MC38 cells infected with rV-LFA-3 (murine) (UniProt P18181).
Test [2] concerns the target murine ICAM-1 (CD54) expressed on MC38 cells infected with rV-ICAM-1 (murine) (UniProt P13597).
The target of test [3] is murine B7-1 (CD80) expressed on MC38 cells infected with rV-B7-1 (murine) (UniProt Q00609).

“Hamster anti-murine CD48 (BCM-1 clone HM48-1) (antibody)” returned a reduction of the increased T-cell proliferation supported by MC38/LFA-3 (Con A, 3H-thymidine) in test [1] of 98%.

Consider “Hamster anti-murine CD54 (ICAM-1; clone 3E2) (antibody)”, for which the reduction of the increased T-cell proliferation supported by MC38/ICAM-1 (Con A, 3H-thymidine) in test [2] came to 88%. Turning to “Hamster anti-murine CD80 (B7-1; clone 16-10A1) (antibody)”, the inhibition of the increased T-cell proliferation supported by MC38/B7-1 (Con A, 3H-thymidine) in test [3] was 83%.
